Measurements as given in patent US20210132079A1 (UCB, published 2021).

Tests used:
[1] = molecular target: T1, human TNFα in complex with compound (2) (human, UniProt P01375 77-233); test: SPR BIAcore, compound-bound against apo TNFα
T1 construct: also called human TNFα + compound (2)

[2] = molecular target: T2, human TNFα in complex with compound (1) (human, UniProt P01375 77-233); test: SPR BIAcore, compound-bound against apo TNFα
T2 construct: also called human TNFα + compound (1); TNFα-compound (1) complex
T2 sequence (P01375 77-233 limits assumed, one chain of several): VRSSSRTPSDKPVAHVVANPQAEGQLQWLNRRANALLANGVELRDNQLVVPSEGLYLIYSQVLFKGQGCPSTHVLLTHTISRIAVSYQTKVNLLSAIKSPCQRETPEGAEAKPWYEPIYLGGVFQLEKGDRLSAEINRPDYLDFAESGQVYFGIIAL

T1 sequence (P01375 77-233 limits assumed, one chain of several): as above

log selective binding against apo human TNFα [1]: > 2 log
log selective binding against apo human TNFα [2]: > 2 log
B1: CA185_01979 mouse IgG1 (mIgG1, kappa) (antibody, V domains shown)
VH: EVHLVESGPGLVKPSQSLSLTCSVTGYSITNSYWDWIRKFPGNKMEWMGYINYSGSTGYNPSLKSRISISRDTSNNQFFLQLNSITTEDTATYYCARGTYGYNAYHFDYWGRGVMVTVSS
VL: DIQMTQSPASLSASLEEIVTITCQASQDIGNWLSWYQQKPGKSPHLLIYGTTSLADGVPSRFSGSRSGTQYSLKISGLQVADIGIYVCLQAYSTPFTFGSGTKLEIKR
notes: also called CA185_01979.0; VR0001842
